Measurements taken from doi:10.1101/827691.

Target: α1-subCD3 as used in cross-linking and NMR (apparent molecular weight 27 kDa) (human) (UniProt P05023)
Assay: cross-linking

- stoichiometry N (FGF2 per α1-subCD3): 1
Substance: N-terminally His6-tagged FGF2 (18 kDa isoform), wild type (from UniProt P09038-2 1-155) (natural protein)
